We go through 67 variants from publication PMC12102759 (2025).

First the molecules themselves.
B1: AXIN1 peptide 237-252 (Axin-1), 16-mer library wild type / PP2A B56 (PPP2R5A B56 domain, residues 1-486) (parent complex)
chain 1: YLPTLNEDEEWKADQD
chain 2: not shown
B2: TPTE2 peptide 92-107 (Phosphatidylinositol 3,4,5-trisphosphate 3-phosphatase TPTE2), 16-mer library wild type / TLN1 PTB (TLN1 Phosphotyrosine-binding (PTB) domain, residues 309-401) (parent complex)
chain 1: LADLIFTDSKLYIPLE
chain 2: GVSFFLVKEKMKGKNKLVPRLLGITKECVMRVDEKTKEVIQEWNLTNIKRWAASPKSFTLDFGDYQDGYYSVQTTEGEQIAQLIAGYIDIILK

The first test covers variants of B1. As to the kind of experiment: proteomic peptide phage display deep mutational scan (ProP-PD DMS): M13 P8 16-mer library selected against immobilised GST-tagged bait for four days (rounds), NGS of the eluted pools per day and pseudo-replica; bait immobilised on MaxiSorp plates (10 µg), library pre-cleared on GST, 2 h binding at 4 °C, five washes; one round per day, days 1-4; value from days 2 and 3.
Take chain 1 Q15T: the screen value was 0.0102 average fractional NGS count over selection days 2 and 3 (reads of this peptide / all reads for the bait, averaged over ….
For the variant chain 1 Q15S, the screen value was 0.00176 average fractional NGS count over selection days 2 and 3 (reads of this peptide / all reads for the bait, averaged over ….
Regarding chain 1 Q15N, the screen value is 0.00887 average fractional NGS count over selection days 2 and 3 (reads of this peptide / all reads for the bait, averaged over ….
For chain 1 Q15P, the screen value was 0.000686 average fractional NGS count over selection days 2 and 3 (reads of this peptide / all reads for the bait, averaged over ….
The same measure, in the same setting: under chain 1 K12P stands 0.00867 average fractional NGS count over selection days 2 and 3 (reads of this peptide / all reads for the bait, averaged over ….
The same measure, in the same setting: with chain 1 K12L the figure was 0.00105 average fractional NGS count over selection days 2 and 3 (reads of this peptide / all reads for the bait, averaged over …; with chain 1 K12Q, 0.00267 average fractional NGS count over selection days 2 and 3 (reads of this peptide / all reads for the bait, averaged over …; with chain 1 K12S, 0.0233 average fractional NGS count over selection days 2 and 3 (reads of this peptide / all reads for the bait, averaged over ….
For chain 1 K12N, the screen value was 0.00219 average fractional NGS count over selection days 2 and 3 (reads of this peptide / all reads for the bait, averaged over ….
For the variant chain 1 K12V, the screen value was 0.00977 average fractional NGS count over selection days 2 and 3 (reads of this peptide / all reads for the bait, averaged over ….
On to chain 1 K12R, for which the screen value was 0.00196 average fractional NGS count over selection days 2 and 3 (reads of this peptide / all reads for the bait, averaged over ….
The same measure, in the same setting: under chain 1 K12Y stands 0.00745 average fractional NGS count over selection days 2 and 3 (reads of this peptide / all reads for the bait, averaged over …; under chain 1 K12H, 0.0202 average fractional NGS count over selection days 2 and 3 (reads of this peptide / all reads for the bait, averaged over ….
The same measure, in the same setting: with chain 1 E9T the figure was 0.00244 average fractional NGS count over selection days 2 and 3 (reads of this peptide / all reads for the bait, averaged over …; with chain 1 E9Q, 0.0159 average fractional NGS count over selection days 2 and 3 (reads of this peptide / all reads for the bait, averaged over ….
The same measure, in the same setting: with chain 1 E9S the figure was 0.00105 average fractional NGS count over selection days 2 and 3 (reads of this peptide / all reads for the bait, averaged over …; with chain 1 E9P, 0.00261 average fractional NGS count over selection days 2 and 3 (reads of this peptide / all reads for the bait, averaged over ….
Regarding chain 1 E9I, the screen value is 0.00451 average fractional NGS count over selection days 2 and 3 (reads of this peptide / all reads for the bait, averaged over ….
Consider chain 1 E9R, for which the screen value was 0.000957 average fractional NGS count over selection days 2 and 3 (reads of this peptide / all reads for the bait, averaged over ….
The same measure, in the same setting: under chain 1 E9A stands 0.00203 average fractional NGS count over selection days 2 and 3 (reads of this peptide / all reads for the bait, averaged over ….

Variants of B2 are the subject of another test. The description is as above.
For the variant chain 1 LADLLFTDSKLYIPLE [chain 1 I5L], the screen value is 0.000706 average fractional NGS count over selection days 2 and 3 (reads of this peptide / all reads for the bait, averaged over ….
Same read-out and setting: with chain 1 LADLHFTDSKLYIPLE [chain 1 I5H] the figure was 0.000463 average fractional NGS count over selection days 2 and 3 (reads of this peptide / all reads for the bait, averaged over …; with chain 1 LADLTFTDSKLYIPLE [chain 1 I5T], 0.000326 average fractional NGS count over selection days 2 and 3 (reads of this peptide / all reads for the bait, averaged over …; with chain 1 LADLNFTDSKLYIPLE [chain 1 I5N], 0.00116 average fractional NGS count over selection days 2 and 3 (reads of this peptide / all reads for the bait, averaged over ….
On the same count and under the same terms, under chain 1 LADLAFTDSKLYIPLE [chain 1 I5A] stands 0.00216 average fractional NGS count over selection days 2 and 3 (reads of this peptide / all reads for the bait, averaged over …; under chain 1 LADLWFTDSKLYIPLE [chain 1 I5W], 0.00126 average fractional NGS count over selection days 2 and 3 (reads of this peptide / all reads for the bait, averaged over ….
Still for that read-out and setting: with chain 1 LADLQFTDSKLYIPLE [chain 1 I5Q] the figure was 0.000996 average fractional NGS count over selection days 2 and 3 (reads of this peptide / all reads for the bait, averaged over …; with chain 1 LADLVFTDSKLYIPLE [chain 1 I5V], 0.000758 average fractional NGS count over selection days 2 and 3 (reads of this peptide / all reads for the bait, averaged over …; with chain 1 LADLSFTDSKLYIPLE [chain 1 I5S], 0.000525 average fractional NGS count over selection days 2 and 3 (reads of this peptide / all reads for the bait, averaged over ….
Turning to chain 1 LADLIFTDSKLYIPME [chain 1 L15M], the screen value was 0.00539 average fractional NGS count over selection days 2 and 3 (reads of this peptide / all reads for the bait, averaged over ….
Same read-out and setting: with chain 1 LADLIFTDSKLYIPIE [chain 1 L15I] the figure was 0.00147 average fractional NGS count over selection days 2 and 3 (reads of this peptide / all reads for the bait, averaged over …; with chain 1 LADLIFTDSKLYIPRE [chain 1 L15R], 0.0012 average fractional NGS count over selection days 2 and 3 (reads of this peptide / all reads for the bait, averaged over ….
As for chain 1 LADLIFTDSKLYIPGE [chain 1 L15G], the screen value is 0.000168 average fractional NGS count over selection days 2 and 3 (reads of this peptide / all reads for the bait, averaged over ….
Same read-out and setting: under chain 1 LADLIFTDSKLYIPSE [chain 1 L15S] stands 0.000436 average fractional NGS count over selection days 2 and 3 (reads of this peptide / all reads for the bait, averaged over …; under chain 1 LADLIFTDSKLYIPDE [chain 1 L15D], 0.000238 average fractional NGS count over selection days 2 and 3 (reads of this peptide / all reads for the bait, averaged over …; under chain 1 LADLIFTDSKLYIPAE [chain 1 L15A], 0.000297 average fractional NGS count over selection days 2 and 3 (reads of this peptide / all reads for the bait, averaged over ….
The same measure, in the same setting: with chain 1 LADLIFTDSKLYIWLE [chain 1 P14W] the figure was 0.000152 average fractional NGS count over selection days 2 and 3 (reads of this peptide / all reads for the bait, averaged over …; with chain 1 LADLIFTDSKLYIPLW [chain 1 E16W], 0.00358 average fractional NGS count over selection days 2 and 3 (reads of this peptide / all reads for the bait, averaged over ….
On the same count and under the same terms, under chain 1 LADLIFTDSKLYIPLK [chain 1 E16K] stands 0.000641 average fractional NGS count over selection days 2 and 3 (reads of this peptide / all reads for the bait, averaged over …; under chain 1 LADLIFTDSKLYIPLY [chain 1 E16Y], 0.00177 average fractional NGS count over selection days 2 and 3 (reads of this peptide / all reads for the bait, averaged over ….
Regarding chain 1 LADLIFTDSKLYIPLI [chain 1 E16I], the screen value is 0.000286 average fractional NGS count over selection days 2 and 3 (reads of this peptide / all reads for the bait, averaged over ….
The same measure, in the same setting: under chain 1 LADLIFTDSKLYIPLP [chain 1 E16P] stands 0.00113 average fractional NGS count over selection days 2 and 3 (reads of this peptide / all reads for the bait, averaged over ….
Still for that read-out and setting: under chain 1 LADLIFTDSKLYIPLD [chain 1 E16D] stands 0.00467 average fractional NGS count over selection days 2 and 3 (reads of this peptide / all reads for the bait, averaged over ….
In the case of chain 1 LADLIFTDSKLYIPLT [chain 1 E16T], the screen value is 0.00391 average fractional NGS count over selection days 2 and 3 (reads of this peptide / all reads for the bait, averaged over ….
chain 1 LADLIFTDSQLYIPLE [chain 1 K10Q]: the screen value was 0.00103 average fractional NGS count over selection days 2 and 3 (reads of this peptide / all reads for the bait, averaged over ….
On the same count and under the same terms, with chain 1 LADLIFTDSILYIPLE [chain 1 K10I] the figure was 0.000133 average fractional NGS count over selection days 2 and 3 (reads of this peptide / all reads for the bait, averaged over …; with chain 1 LADLIFTDSSLYIPLE [chain 1 K10S], 0.000449 average fractional NGS count over selection days 2 and 3 (reads of this peptide / all reads for the bait, averaged over ….
On the same count and under the same terms, with chain 1 LADLIFTDSGLYIPLE [chain 1 K10G] the figure was 0.000514 average fractional NGS count over selection days 2 and 3 (reads of this peptide / all reads for the bait, averaged over …; with chain 1 LADLIFTDSTLYIPLE [chain 1 K10T], 0.000653 average fractional NGS count over selection days 2 and 3 (reads of this peptide / all reads for the bait, averaged over ….
The same measure, in the same setting: with chain 1 LADLIFTDSKLYKPLE [chain 1 I13K] the figure was 0.0008 average fractional NGS count over selection days 2 and 3 (reads of this peptide / all reads for the bait, averaged over …; with chain 1 LADLIFTDSKIYIPLE [chain 1 L11I], 0.00106 average fractional NGS count over selection days 2 and 3 (reads of this peptide / all reads for the bait, averaged over …; with chain 1 LSDLIFTDSKLYIPLE [chain 1 A2S], 0.000833 average fractional NGS count over selection days 2 and 3 (reads of this peptide / all reads for the bait, averaged over ….
Consider chain 1 LMDLIFTDSKLYIPLE [chain 1 A2M], for which the screen value was 0.000697 average fractional NGS count over selection days 2 and 3 (reads of this peptide / all reads for the bait, averaged over ….
Still for that read-out and setting: under chain 1 LYDLIFTDSKLYIPLE [chain 1 A2Y] stands 0.00133 average fractional NGS count over selection days 2 and 3 (reads of this peptide / all reads for the bait, averaged over …; under chain 1 LNDLIFTDSKLYIPLE [chain 1 A2N], 0.000208 average fractional NGS count over selection days 2 and 3 (reads of this peptide / all reads for the bait, averaged over …; under chain 1 LRDLIFTDSKLYIPLE [chain 1 A2R], 0.00121 average fractional NGS count over selection days 2 and 3 (reads of this peptide / all reads for the bait, averaged over ….
The same measure, in the same setting: with chain 1 LQDLIFTDSKLYIPLE [chain 1 A2Q] the figure was 0.000351 average fractional NGS count over selection days 2 and 3 (reads of this peptide / all reads for the bait, averaged over …; with chain 1 LADMIFTDSKLYIPLE [chain 1 L4M], 0.000697 average fractional NGS count over selection days 2 and 3 (reads of this peptide / all reads for the bait, averaged over …; with chain 1 LADSIFTDSKLYIPLE [chain 1 L4S], 0.00023 average fractional NGS count over selection days 2 and 3 (reads of this peptide / all reads for the bait, averaged over ….
Still for that read-out and setting: with chain 1 LADDIFTDSKLYIPLE [chain 1 L4D] the figure was 0.0012 average fractional NGS count over selection days 2 and 3 (reads of this peptide / all reads for the bait, averaged over ….
Consider chain 1 LADEIFTDSKLYIPLE [chain 1 L4E], for which the screen value was 0.000131 average fractional NGS count over selection days 2 and 3 (reads of this peptide / all reads for the bait, averaged over ….
The same measure, in the same setting: under chain 1 LADLIFTTSKLYIPLE [chain 1 D8T] stands 0.000557 average fractional NGS count over selection days 2 and 3 (reads of this peptide / all reads for the bait, averaged over …; under chain 1 LADLIFTESKLYIPLE [chain 1 D8E], 0.00151 average fractional NGS count over selection days 2 and 3 (reads of this peptide / all reads for the bait, averaged over …; under chain 1 LAELIFTDSKLYIPLE [chain 1 D3E], 0.000596 average fractional NGS count over selection days 2 and 3 (reads of this peptide / all reads for the bait, averaged over ….
Regarding chain 1 LADLIFMDSKLYIPLE [chain 1 T7M], the screen value is 0.000146 average fractional NGS count over selection days 2 and 3 (reads of this peptide / all reads for the bait, averaged over ….
Still for that read-out and setting: under chain 1 LADLIFQDSKLYIPLE [chain 1 T7Q] stands 0.000521 average fractional NGS count over selection days 2 and 3 (reads of this peptide / all reads for the bait, averaged over …; under chain 1 LADLIFNDSKLYIPLE [chain 1 T7N], 0.000232 average fractional NGS count over selection days 2 and 3 (reads of this peptide / all reads for the bait, averaged over ….
